Source: the Human Domainome abundance scans (Beltran et al. 2025)
± gives the uncertainty stated by the source.

Assay: abundance fitness (aPCA) (normalised: wild type 0, dead -1); higher = more abundant; growth selection in yeast, the domain comes from the species named
Conditions: Homo sapiens
With “E3 ubiquitin-protein ligase NEDD4-like P194T, Q96PU5” the abundance fitness was -0.107 ± 0.07. For “E3 ubiquitin-protein ligase NEDD4-like Y211D, Q96PU5”, the abundance fitness was -0.486 ± 0.065. In the case of “E3 ubiquitin-protein ligase NEDD4-like D204G, Q96PU5”, the abundance fitness is reported as -0.491 ± 0.057. “E3 ubiquitin-protein ligase NEDD4-like Q185F, Q96PU5” showed an abundance fitness of -0.257 ± 0.12. With “E3 ubiquitin-protein ligase NEDD4-like W199I, Q96PU5” the abundance fitness was -0.462 ± 0.13. Substance “E3 ubiquitin-protein ligase NEDD4-like T219V, Q96PU5” has an abundance fitness of -0.348 ± 0.063. In the case of “E3 ubiquitin-protein ligase NEDD4-like E200W, Q96PU5”, the abundance fitness is reported as -0.603 ± 0.069. Work on “E3 ubiquitin-protein ligase NEDD4-like N215M, Q96PU5” yielded an abundance fitness of -0.077 ± 0.062. “E3 ubiquitin-protein ligase NEDD4-like P224R, Q96PU5” showed an abundance fitness of -0.94 ± 0.056. Substance “E3 ubiquitin-protein ligase NEDD4-like Y210R, Q96PU5” has an abundance fitness of -0.299 ± 0.063. For “E3 ubiquitin-protein ligase NEDD4-like P196L, Q96PU5”, the abundance fitness was -0.126 ± 0.078. With “E3 ubiquitin-protein ligase NEDD4-like P192M, Q96PU5” the abundance fitness was 0.094 ± 0.082. With “E3 ubiquitin-protein ligase NEDD4-like T209I, Q96PU5” the abundance fitness was -0.036 ± 0.088. “E3 ubiquitin-protein ligase NEDD4-like P197F, Q96PU5” gave an abundance fitness of -0.006 ± 0.061. Work on “E3 ubiquitin-protein ligase NEDD4-like P197Q, Q96PU5” yielded an abundance fitness of -0.081 ± 0.099. In the case of “E3 ubiquitin-protein ligase NEDD4-like Q185R, Q96PU5”, the abundance fitness is reported as -0.633 ± 0.068. With “E3 ubiquitin-protein ligase NEDD4-like V229A, Q96PU5” the abundance fitness was -0.001 ± 0.064. Work on “E3 ubiquitin-protein ligase NEDD4-like P224M, Q96PU5” yielded an abundance fitness of -0.796 ± 0.11. “E3 ubiquitin-protein ligase NEDD4-like Q220P, Q96PU5” gave an abundance fitness of -0.9 ± 0.078. In the case of “E3 ubiquitin-protein ligase NEDD4-like G207I, Q96PU5”, the abundance fitness is reported as -0.96 ± 0.061. With “E3 ubiquitin-protein ligase NEDD4-like G207S, Q96PU5” the abundance fitness was -0.182 ± 0.048. For “E3 ubiquitin-protein ligase NEDD4-like Q187S, Q96PU5”, the abundance fitness was -0.242 ± 0.073. “E3 ubiquitin-protein ligase NEDD4-like W221C, Q96PU5” gave an abundance fitness of -0.051 ± 0.079. “E3 ubiquitin-protein ligase NEDD4-like Y211S, Q96PU5” gave an abundance fitness of -0.715 ± 0.055. For “E3 ubiquitin-protein ligase NEDD4-like V229K, Q96PU5”, the abundance fitness was -0.111 ± 0.095. “E3 ubiquitin-protein ligase NEDD4-like L190G, Q96PU5” showed an abundance fitness of -0.178 ± 0.059. “E3 ubiquitin-protein ligase NEDD4-like H222K, Q96PU5” showed an abundance fitness of 0.251 ± 0.1. Substance “E3 ubiquitin-protein ligase NEDD4-like L206N, Q96PU5” has an abundance fitness of -0.016 ± 0.11. Work on “E3 ubiquitin-protein ligase NEDD4-like K202A, Q96PU5” yielded an abundance fitness of -0.185 ± 0.06. For “E3 ubiquitin-protein ligase NEDD4-like N215L, Q96PU5”, the abundance fitness was -0.205 ± 0.07. With “E3 ubiquitin-protein ligase NEDD4-like H186R, Q96PU5” the abundance fitness was -0.59 ± 0.061. Substance “E3 ubiquitin-protein ligase NEDD4-like R208T, Q96PU5” has an abundance fitness of -0.005 ± 0.08. “E3 ubiquitin-protein ligase NEDD4-like M227K, Q96PU5” gave an abundance fitness of -0.015 ± 0.093. In the case of “E3 ubiquitin-protein ligase NEDD4-like H186T, Q96PU5”, the abundance fitness is reported as -0.288 ± 0.11. “E3 ubiquitin-protein ligase NEDD4-like Q220V, Q96PU5” gave an abundance fitness of -0.242 ± 0.06. Substance “E3 ubiquitin-protein ligase NEDD4-like R208Y, Q96PU5” has an abundance fitness of -0.23 ± 0.11. With “E3 ubiquitin-protein ligase NEDD4-like R208Q, Q96PU5” the abundance fitness was 0.215 ± 0.09. “E3 ubiquitin-protein ligase NEDD4-like P191I, Q96PU5” showed an abundance fitness of 0.152 ± 0.12. “E3 ubiquitin-protein ligase NEDD4-like P197T, Q96PU5” showed an abundance fitness of -0.017 ± 0.087. Substance “E3 ubiquitin-protein ligase NEDD4-like G207F, Q96PU5” has an abundance fitness of -0.423 ± 0.056. “E3 ubiquitin-protein ligase NEDD4-like H222M, Q96PU5” showed an abundance fitness of 0.173 ± 0.093. For “E3 ubiquitin-protein ligase NEDD4-like R208M, Q96PU5”, the abundance fitness was -0.062 ± 0.078. “E3 ubiquitin-protein ligase NEDD4-like E189G, Q96PU5” showed an abundance fitness of -0.241 ± 0.058. “E3 ubiquitin-protein ligase NEDD4-like L206T, Q96PU5” showed an abundance fitness of 0.011 ± 0.08. Substance “E3 ubiquitin-protein ligase NEDD4-like N215V, Q96PU5” has an abundance fitness of -0.263 ± 0.071. “E3 ubiquitin-protein ligase NEDD4-like Q185P, Q96PU5” gave an abundance fitness of -0.539 ± 0.12. “E3 ubiquitin-protein ligase NEDD4-like S231V, Q96PU5” showed an abundance fitness of -0.062 ± 0.067. Substance “E3 ubiquitin-protein ligase NEDD4-like P192A, Q96PU5” has an abundance fitness of -0.021 ± 0.078. In the case of “E3 ubiquitin-protein ligase NEDD4-like T219A, Q96PU5”, the abundance fitness is reported as -0.28 ± 0.057. For “E3 ubiquitin-protein ligase NEDD4-like T219L, Q96PU5”, the abundance fitness was -0.623 ± 0.076. In the case of “E3 ubiquitin-protein ligase NEDD4-like S184C, Q96PU5”, the abundance fitness is reported as -0.457 ± 0.1. With “E3 ubiquitin-protein ligase NEDD4-like R208C, Q96PU5” the abundance fitness was 0.06 ± 0.062. For “E3 ubiquitin-protein ligase NEDD4-like W221H, Q96PU5”, the abundance fitness was -0.243 ± 0.1. Work on “E3 ubiquitin-protein ligase NEDD4-like E189W, Q96PU5” yielded an abundance fitness of -0.56 ± 0.065. Substance “E3 ubiquitin-protein ligase NEDD4-like P192I, Q96PU5” has an abundance fitness of -0.269 ± 0.1. “E3 ubiquitin-protein ligase NEDD4-like N213R, Q96PU5” gave an abundance fitness of -0.56 ± 0.069. Work on “E3 ubiquitin-protein ligase NEDD4-like K202T, Q96PU5” yielded an abundance fitness of -0.308 ± 0.083. Substance “E3 ubiquitin-protein ligase NEDD4-like D204L, Q96PU5” has an abundance fitness of -0.803 ± 0.072. In the case of “E3 ubiquitin-protein ligase NEDD4-like E201V, Q96PU5”, the abundance fitness is reported as -0.14 ± 0.052. “E3 ubiquitin-protein ligase NEDD4-like W221K, Q96PU5” gave an abundance fitness of -0.044 ± 0.1. Substance “E3 ubiquitin-protein ligase NEDD4-like W199Q, Q96PU5” has an abundance fitness of -0.586 ± 0.098. Substance “E3 ubiquitin-protein ligase NEDD4-like P194S, Q96PU5” has an abundance fitness of -0.06 ± 0.065. In the case of “E3 ubiquitin-protein ligase NEDD4-like P197Y, Q96PU5”, the abundance fitness is reported as -0.058 ± 0.08. “E3 ubiquitin-protein ligase NEDD4-like N216M, Q96PU5” gave an abundance fitness of 0.18 ± 0.094. “E3 ubiquitin-protein ligase NEDD4-like M227R, Q96PU5” showed an abundance fitness of 0.001 ± 0.054. For “E3 ubiquitin-protein ligase NEDD4-like N215H, Q96PU5”, the abundance fitness was -0.031 ± 0.1. For “E3 ubiquitin-protein ligase NEDD4-like R217T, Q96PU5”, the abundance fitness was -0.069 ± 0.081. “E3 ubiquitin-protein ligase NEDD4-like N213D, Q96PU5” showed an abundance fitness of -0.206 ± 0.075. Work on “E3 ubiquitin-protein ligase NEDD4-like P224K, Q96PU5” yielded an abundance fitness of -0.552 ± 0.089. Work on “E3 ubiquitin-protein ligase NEDD4-like T209R, Q96PU5” yielded an abundance fitness of -0.096 ± 0.058. In the case of “E3 ubiquitin-protein ligase NEDD4-like Q220F, Q96PU5”, the abundance fitness is reported as -0.618 ± 0.12. With “E3 ubiquitin-protein ligase NEDD4-like N215S, Q96PU5” the abundance fitness was -0.013 ± 0.07. “E3 ubiquitin-protein ligase NEDD4-like P224C, Q96PU5” showed an abundance fitness of -0.772 ± 0.11. Substance “E3 ubiquitin-protein ligase NEDD4-like V203G, Q96PU5” has an abundance fitness of -0.424 ± 0.053. For “E3 ubiquitin-protein ligase NEDD4-like H214Q, Q96PU5”, the abundance fitness was -0.211 ± 0.089. For “E3 ubiquitin-protein ligase NEDD4-like E200A, Q96PU5”, the abundance fitness was -0.105 ± 0.062. For “E3 ubiquitin-protein ligase NEDD4-like Y210W, Q96PU5”, the abundance fitness was -0.287 ± 0.08. Substance “E3 ubiquitin-protein ligase NEDD4-like Q185G, Q96PU5” has an abundance fitness of -0.723 ± 0.058. For “E3 ubiquitin-protein ligase NEDD4-like L206Q, Q96PU5”, the abundance fitness was 0.021 ± 0.091. With “E3 ubiquitin-protein ligase NEDD4-like L226A, Q96PU5” the abundance fitness was 0.021 ± 0.072. “E3 ubiquitin-protein ligase NEDD4-like D204P, Q96PU5” gave an abundance fitness of -0.897 ± 0.15. For “E3 ubiquitin-protein ligase NEDD4-like Y211T, Q96PU5”, the abundance fitness was -0.608 ± 0.064. “E3 ubiquitin-protein ligase NEDD4-like W221D, Q96PU5” gave an abundance fitness of -0.029 ± 0.1. For “E3 ubiquitin-protein ligase NEDD4-like Y211G, Q96PU5”, the abundance fitness was -0.749 ± 0.058. Work on “E3 ubiquitin-protein ligase NEDD4-like E200K, Q96PU5” yielded an abundance fitness of -0.161 ± 0.062. “E3 ubiquitin-protein ligase NEDD4-like L190Q, Q96PU5” gave an abundance fitness of -0.556 ± 0.13. For “E3 ubiquitin-protein ligase NEDD4-like S231K, Q96PU5”, the abundance fitness was -0.273 ± 0.15. In the case of “E3 ubiquitin-protein ligase NEDD4-like W199P, Q96PU5”, the abundance fitness is reported as -1.03 ± 0.13. With “E3 ubiquitin-protein ligase NEDD4-like N215E, Q96PU5” the abundance fitness was -0.086 ± 0.077. Substance “E3 ubiquitin-protein ligase NEDD4-like Q220G, Q96PU5” has an abundance fitness of -0.548 ± 0.071. For “E3 ubiquitin-protein ligase NEDD4-like N216E, Q96PU5”, the abundance fitness was -0.188 ± 0.076. Substance “E3 ubiquitin-protein ligase NEDD4-like S231H, Q96PU5” has an abundance fitness of -0.331 ± 0.13. Substance “E3 ubiquitin-protein ligase NEDD4-like Q220I, Q96PU5” has an abundance fitness of -0.371 ± 0.12. Work on “E3 ubiquitin-protein ligase NEDD4-like P224A, Q96PU5” yielded an abundance fitness of -0.765 ± 0.08. With “E3 ubiquitin-protein ligase NEDD4-like R223K, Q96PU5” the abundance fitness was 0.013 ± 0.1.
